# Measurements reported in US10919937 (Bicycle, dated 2021).
# Values joined by “and” are separate entries in the source; they are usually repeats but may differ in a detail not shown here. Equal values may be shown once. *1 amine or outer side, *2 acyl side, *3 side chain or, on linkers, in order; H or OH if unused. Bridges are numbered along the chain shown (N, C = ends). Primed or numbered codes have the meaning given here. Where no end group is shown, it is not given here. [ ]: non-standard residue; d: D form. MSR‑C = 1-[4-[4-[4,6-bis[4-[1-(2-chloroacetyl)-4-piperidyl]piperazin-1-yl]-1,3,5-triazin-2-yl]piperazin-1-yl]-1-piperidyl]-2-chloro-ethanone, O=C(C[*:1])N1CCC(N2CCN(c3nc(N4CCN(C5CCN(C(=O)C[*:2])CC5)CC4)nc(N4CCN(C5CCN(C(=O)C[*:3])CC5)CC4)n3)CC2)CC1; MSR‑F = 1-[4-[4-[4,6-bis[4-[4-(2-chloroacetyl)piperazin-1-yl]phenyl]-1,3,5-triazin-2-yl]phenyl]piperazin-1-yl]-2-chloro-ethanone, O=C(C[*:1])N1CCN(c2ccc(-c3nc(-c4ccc(N5CCN(C(=O)C[*:2])CC5)cc4)nc(-c4ccc(N5CCN(C(=O)C[*:3])CC5)cc4)n3)cc2)CC1; MSR‑B = molecular scaffold reagent B, 2,4,6-tris[4-(bromomethyl)phenyl]-1,3,5-triazine, c1cc(-c2nc(-c3ccc(C[*:2])cc3)nc(-c3ccc(C[*:3])cc3)n2)ccc1C[*:1]; MSR‑B(3) = molecular scaffold reagent 2,4,6-tris[4-(bromomethyl)phenyl]-1,3,5-triazine, c1cc(-c2nc(-c3ccc(C[*:2])cc3)nc(-c3ccc(C[*:3])cc3)n2)ccc1C[*:1]; MSR‑G = scaffold reagent with three vinyl sulfonyl Michael acceptors (C9H15N3O6S3), O=S(=O)(CC[*:1])N1CN(S(=O)(=O)CC[*:2])CN(S(=O)(=O)CC[*:3])C1; MSR‑H = 1-[4-(bromomethyl)phenyl]-N,N-bis[[4-(bromomethyl)phenyl]methyl]methanamine, c1cc(C[*:1])ccc1CN(Cc1ccc(C[*:2])cc1)Cc1ccc(C[*:3])cc1; MSR‑B″ = 2,4,6-tris[4-(bromomethyl)phenyl]-1,3,5-triazine, c1cc(-c2nc(-c3ccc(C[*:2])cc3)nc(-c3ccc(C[*:3])cc3)n2)ccc1C[*:1]; MSR‑E = scaffold reagent with three bromomethyl groups (C27H24Br3N3O3); 1Nal = N[C@@H](Cc1cccc2ccccc12)C(=O)O; Tle = CC(C)(C)[C@H](N)C(=O)O; MSR‑D = not defined here
# Biological target: human carbonic anhydrase IX (human, UniProt Q16790 38-414)
# Assay: competition fluorescence polarization, tracer SEQ ID NO: 11, n = 2
row,Ki,Binder
1,≥ 500 nM and < 1000 nM,"YTECWVDGWVPY (also: cyclised via a tyrosine linkage to an unnamed scaffold, places not given here, also called 1-109) [Compound I-109]"
2,< 500 nM,"CTECWVDGWVPC (linker 1-4-12 via MSR‑B(3) (inferred), also called 1-98) [Compound I-98]"
3,< 500 nM,"CTEYWVDGWVPC (also: cyclised via a tyrosine linkage to an unnamed scaffold, places not given here, also called 1-108) [Compound I-108]"

# Biological target: T1, MT1-MMP hemopexin domain (UniProt P50281 319-511)
# T1 construct: domain: hemopexin domain; also called MMP14; membrane type 1 metalloprotease
# Assay: MT1-MMP direct binding fluorescence polarization (as titled), n = 2
# Description: Example 5: Dissociation Rate Constant Determination of Bicyclic Binders to MT1-MMP Direct Binding Fluorescence Polarization (Anisotropy) Assays Direct Binding Fluorescence Polarization or Anisotropy Assays are performed by titrating a constant concentration of fluorescent tracer (here, the fluoresceinated bicyclic peptide to be studied) with its binding partner (here, the MT1-MMP hemopexin domain). As the concentration of binding partner increases during the titration, the polarization signal changes in proportion to the fraction of bound and unbound material. This allows determination of […] (K_d) quantitatively. Assay data can be fit using standard ligand binding equations.
# Typically, concentrations of the tracer are ideally well below the K_d of the tracer:titrant pair, and concentrations chosen are usually at ~1 nM or less. The titrant (binding partner) concentration is varied from 0.1 nM up to typically 5 μM. The range is chosen such that the maximum change in fluorescent polarization can be observed. Buffers employed are phosphate buffered saline in the presence of 0.01% Tween. Experiments were run in black 384 well low-bind/low volume plates (Corning 3820), and the fluorescent polarization signal was measured using a BMG Pherastar FS plate reader. Fluorescent tracers referred to in the text are bicyclic peptides that have been fluoresceinated using 5,6-carboxyfluorescein. Fluoresceination may be performed on the N-terminal amino group of the peptide, which is separated from the bicycle core sequence by a sarcosine spacer (usually Sar5). This can be done during Fmoc solid phase synthesis or post-synthetically (after cyclization with the molecular scaffold reagent and purification) if the N-terminal amino group is unique to the peptide. Fluoresceination can also be performed on the C-terminus, usually on a Lysine introduced as the first C-terminal residue, which is then separated from the bicycle core sequence by a sarcosine spacer (usually Sar6). Thus, N-terminal tracers can have a molecular format described as Fluo-Gly-Sar5-A(Bicycle-CoreSequence), and (BicycleCoreSequence)-A-Sar6-K (Fluo) for a C-terminally fluoresceinated construct.
row,Ki,Binder
1,< 500 nM,"AC[dA]NE[1Nal][dA]CEDFYD[Tle]C (linker 2-8-15 via MSR‑E, also called 1-93) [Compound I-93]"
2,≥ 500 nM and < 1000 nM,"AC[dA]NE[1Nal][dA]CEDFYD[Tle]C (linker 2-8-15 via MSR‑G, also called 1-95) [Compound I-95]"
3,< 500 nM,"AC[dA]NE[1Nal][dA]CEDFYD[Tle]C (linker 2-8-15 via MSR‑H, also called 1-96) [Compound I-96]"
4,< 500 nM,"AC[dA]NE[1Nal][dA]CEDFYD[Tle]C (linker 2-8-15 via MSR‑F, also called 1-94) [Compound I-94]"
5,< 500 nM,"AC[dA]NE[1Nal][dA]CEDFYD[Tle]C (linker 2-8-15 via MSR‑C, also called 1-91) [Compound I-91]"
6,≥ 500 nM and < 1000 nM,"AC[dA]NE[1Nal][dA]CEDFYD[Tle]C (linker 2-8-15 via MSR‑D; not fully specified; reading uncertain, also called 1-92) [Compound I-92]"
7,< 500 nM,"AC[dA]NE[1Nal][dA]CEDFYD[Tle]C (linker 2-8-15 via MSR‑B, also called 1-90) [Compound I-90]"

# Biological target: T2, EphA2 (UniProt P29317 25-534, limits assumed, biotinylated with EZ-Link Sulfo-NHS-LC-Biotin (sites not given))
# T2 construct: Fc-tagged proteins are also mentioned; also called ephrin type-A receptor 2; biotinylated EphA2
# Assay: SPR (Biacore), biotinylated EphA2 on streptavidin, peptide as analyte, n = 2
# Description: SPR Measurements: Non-Fc fusion proteins were biotinylated with EZ-Link™ Sulfo-NHS-LC-Biotin for 1 hour in 4 mM sodium acetate, 100 mM NaCl, pH 5.4 with a 3× molar excess of biotin over protein. The degree of labelling was determined using a Fluorescence Biotin Quantification-Kit (Thermo) after dialysis of the reaction mixture into PBS. For analysis of peptide binding, a Biacore T200 10 instrument was used utilising a XanTec CMD500D chip. Streptavidin was immobilized on the chip using standard amine-coupling chemistry at 25° C. with HBS—N (10 mM HEPES, 0.15 M NaCl, pH 7.4) as the running buffer. Briefly, the carboxymethyl dextran surface was activated with a 7 min injection of a 1:1 ratio of 0.4 M 1-ethyl-3-(3-dimethylaminopropyl) carbodiimide hydrochloride (EDC)/0.1 M N-hydroxy succinimide (NHS) at a flow rate of 10 μl/min. For capture of streptavidin, the protein was diluted to 0.2 mg/ml in 10 mM sodium acetate (pH 4.5) and captured by injecting 120 μl onto the activated chip surface. Residual activated groups were blocked with a 7 min injection of 1 M ethanolamine (pH 8.5):HBS—N (1:1). Buffer was changed to PBS/0.05% Tween 20 and biotinylated EphA2 was captured to a level of 500-1500 RU using a dilution of protein to 0.2 μM in buffer. A dilution series of the peptides was prepared in this buffer with a final DMSO concentration of 0.5% with a top peptide concentration was 50 or 100 nM and 6 further 2-fold dilutions. The SPR analysis was run at 25° C. at a flow rate of […] with 60 seconds association and 900-1200 seconds dissociation. Data were corrected for DMSO excluded volume effects. All data were double-referenced for blank injections and reference surface using standard processing procedures and data processing and kinetic fitting were performed using Scrubber software, version 2.0c (BioLogic Software).
# Data were fitted using simple 1:1 binding model allowing for mass transport effects where appropriate for binding of Bicycle Drug Conjugates, a Biacore 3000 instrument was used. For biotinylated proteins immobilisation levels were 1500 RU and the top concentration was 100 nM. Otherwise the method was the same as described above using either the CMD500D or a CM5 chip (GE Healthcare).
# T2 sequence (P29317 25-534 limits assumed): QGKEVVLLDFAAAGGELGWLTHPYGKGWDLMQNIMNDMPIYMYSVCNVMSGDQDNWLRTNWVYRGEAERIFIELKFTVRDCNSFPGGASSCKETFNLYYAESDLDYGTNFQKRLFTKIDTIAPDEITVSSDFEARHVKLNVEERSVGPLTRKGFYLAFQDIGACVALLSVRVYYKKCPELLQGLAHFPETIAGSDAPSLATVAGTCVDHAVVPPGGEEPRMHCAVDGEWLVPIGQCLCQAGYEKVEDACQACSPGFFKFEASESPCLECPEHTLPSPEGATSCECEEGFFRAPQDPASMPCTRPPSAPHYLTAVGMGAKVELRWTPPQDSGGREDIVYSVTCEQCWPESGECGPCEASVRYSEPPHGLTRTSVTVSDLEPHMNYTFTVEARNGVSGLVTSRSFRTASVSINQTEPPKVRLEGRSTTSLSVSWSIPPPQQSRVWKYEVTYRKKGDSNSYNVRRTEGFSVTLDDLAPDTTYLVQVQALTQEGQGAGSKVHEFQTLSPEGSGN
row,Kd,Binder
1,< 500 nM,ADVHCPWGPFWCPVNRPGCA (linker 5-12-19 via MSR‑C; also: a note names MSR-B as the scaffold) [Compound I-101]
2,< 500 nM,ADVHCPWGPFWCPVNRPGCA (linker 5-12-19 via MSR‑F; not fully specified) [Compound I-104]
3,< 500 nM,ADVHCPWGPFWCPVNRPGCA (linker 5-12-19 via MSR‑B″) [Compound I-100]
4,< 500 nM,ADVHCPWGPFWCPVNRPGCA (linker 5-12-19 via MSR‑G; not fully specified) [Compound I-105]
5,< 500 nM,ADVHCPWGPFWCPVNRPGCA (linker 5-12-19 via MSR‑H; not fully specified) [Compound I-106]
